The target in one series is ZmMYB42 (Zea mays, UniProt K7V4N7 1-264). The experiment in a line: EMSA. In general terms: In EMSA bound probe runs differently from free probe, usually more slowly.
The target of the next series is T1, ZmUB3 (Zea mays, UniProt A0A804P0G2 1-407).
T1 sequence: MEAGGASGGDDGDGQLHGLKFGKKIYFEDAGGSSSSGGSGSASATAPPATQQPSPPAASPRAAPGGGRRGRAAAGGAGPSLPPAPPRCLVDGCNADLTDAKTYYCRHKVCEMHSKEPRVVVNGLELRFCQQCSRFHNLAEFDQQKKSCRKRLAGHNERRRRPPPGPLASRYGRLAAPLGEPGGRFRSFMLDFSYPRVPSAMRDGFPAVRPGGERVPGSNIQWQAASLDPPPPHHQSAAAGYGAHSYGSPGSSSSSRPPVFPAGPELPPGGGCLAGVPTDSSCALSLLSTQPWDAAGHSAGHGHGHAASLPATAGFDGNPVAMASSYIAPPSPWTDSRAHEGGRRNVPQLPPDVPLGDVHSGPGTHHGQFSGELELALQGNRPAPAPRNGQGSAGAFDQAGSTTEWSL
The experiment in a line: EMSA.

B1: ZmLHT14 MBS 40 bp probe (dsDNA)
DNA 1: GCGGTGCCGGAGTAGATAACTGGTACTACAAAACACAATA
DNA 2: TATTGTGTTTTGTAGTACCAGTTATCTACTCCGGCACCGC
For B1, in the series with ZmMYB42, the binding result is “binds”.

B2: ZmMYB63 promoter GTAC 40 bp probe (dsDNA)
DNA 1: AAGTTTTGCGCACAGTGGTACGGAGGCGGACTGCTCCAAT
DNA 2: ATTGGAGCAGTCCGCCTCCGTACCACTGTGCGCAAAACTT
Consider B2, for which the binding result with ZmUB3 is “binds”.

B3: ZmSWEET13c MBS 40 bp probe (dsDNA)
DNA 1: ATGCTGTATTGAGTCCCCCGTTGTCGGAAATTAAAATTAT
DNA 2: ATAATTTTAATTTCCGACAACGGGGGACTCAATACAGCAT
On to B3, for which the binding result with ZmMYB42 is “binds”.

B4: ZmMYB42 promoter GTAC 40 bp probe (dsDNA)
DNA 1: TAACAAGGGCTTAACATGGTACGGTTTATTATATGTCAGA
DNA 2: TCTGACATATAATAAACCGTACCATGTTAAGCCCTTGTTA
With B4, the binding result with ZmUB3 is given as “binds”.

B5: ZmSWEET10 MBS 40 bp probe (dsDNA)
DNA 1: TCCCGGCCCTGTGCTGATAACTGTCTCTCTTTATTACGTG
DNA 2: CACGTAATAAAGAGAGACAGTTATCAGCACAGGGCCGGGA
Consider B5, for which the binding result with ZmMYB42 is “binds”.
